B1: Centrosomal protein POC5 (Homo sapiens), Q8NA72 (parent)
chain: MSSDEEKYSLPVVQNDSSRGSSVSSNLQEEYEELLHYAIVTPNIEPCASQSSHPKGELVPDVRISTIHDILHSQGNNSEVRETAIEVGKGCDFHISSHSKTDESSPVLSPRKPSHPVMDFFSSHLLADSSSPATNSSHTDAHEILVSDFLVSDENLQKMENVLDLWSSGLKTNIISELSKWRLNFIDWHRMEMRKEKEKHAAHLKQLCNQINELKELQKTFEISIGRKDEVISSLSHAIGKQKEKIELMRTFFHWRIGHVRARQDVYEGKLADQYYQRTLLKKVWKVWRSVVQKQWKDVVERACQARAEEVCIQISNDYEAKVAMLSGALENAKAEIQRMQHEKEHFEDSMKKAFMRGVCALNLEAMTIFQNRNDAGIDSTNNKKEEYGPGVQGKEHSAHLDPSAPPMPLPVTSPLLPSPPAAVGGASATAVPSAASMTSTRAASASSVHVPVSALGAGSAATAASEEMYVPRVVTSAQQKAGRTITARITGRCDFASKNRISSSLAIMGVSPPMSSVVVEKHHPVTVQTIPQATAAKYPRTIHPESSTSASRSLGTRSAHTQSLTSVHSIKVVD

Variants of: B1
Conditions: with tba4a_human TUBA4A

| Variant | effect of a mutation on the interaction |
| --- | --- |
| A429V | decreasing interaction strength |

Variants of: B1
Conditions: with tba4a_human TUBA4A
Remark: another data set of the same source

| Variant | effect of a mutation on the interaction |
| --- | --- |
| A429V | disrupting interaction strength |

Source: IntAct's records for PubMed 30845169
